Laboratory results reported in PMC11214941.

Experiments:
[1] = CHX chase immunoblot, protein remaining; details: glycan lost; control: untreated
[2] = IF of GFP-EREG in HEK293, membrane localisation; details: glycan lost; control: GFP-EREG-WT, untreated
[3] = ELISA of EREG in HEK293 conditioned medium; details: glycan lost; control: EREG-WT

| Substance | degradation_or_half_life [1] | localisation_or_trafficking [2] | expression_or_secretion [3] |
| --- | --- | --- | --- |
| Epiregulin (EREG): tunicamycin | decreases | decreases | – |
| Epiregulin (EREG): N47Q | – | decreases | decreases |
| Epiregulin (EREG): NGI-1 | decreases | decreases | – |
